Reference: the supplement of paper PMC7877785
± gives the uncertainty stated by the source.

Test: self-splicing fitness, log relative to wild type (ln ratio); higher = more splicing; Tetrahymena group I intron in knt gene, E. coli kanamycin selection, DiMSum; sequences stand for … in CUCUCU…GGAGGGAAAAGUUAUCAGGCAUGCACCUGGUAGCUAGUCUUUAAACCAAUAGAUUGCAUCGGUUUAAAAGGCAAGACCGUCAAAUUGCGGGAAAGGGGUCAACAGCCGUUCAGUACCAAGUCUCAGGGGAAACUUUGAGAUGGCCUUGCAAAGGGUAUGGUAAUAAGCUGACGGACAUGGUCCUAACCACGCAGCCAAGUCCUAAGUCAACAGAUCUUCUGUUGAUAUGGAUGCAGUUCACAGACUAAAUGUCGGUCGGGGAAGAUGUAUUCUUCUCAUAAGAUAUAGUCGGACCUCUCCUUAAUGGGAGCUAGCGGAUGAAGUGAUGCAACACUGGAGCCGCUGGGAACUAAUUUGUAUGCGAAAGUAUAUUGAUUAGUUUUGGAGUACUCGUGGUCG
How it was run: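 Colonies from six replicate transformations of E. coli BL21(DE3) were pooled and amplicon-sequenced on an Illumina HiSeq 2500. The library placed an intron with all eight P1ex-region nucleotides randomised inside the knt kanamycin-resistance gene on pET-22b(+), and cells grew overnight at 37°C or 30°C on LB agar with or without 25 μg/mL kanamycin (plus 100 μg/mL carbenicillin, 50 μM IPTG, 0.2% rhamnose). Fitness is the DiMSum error-weighted combination of wild-type-normalised replicate fold changes, kanamycin versus none.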

| Sequence | self-splicing fitness (ln) (30 °C) | self-splicing fitness (ln) (37 °C) |
| --- | --- | --- |
| UACCAGCAAUAUUACGUUAC | -2.83 ± 0.3 | -2.26 ± 0.21 |
| ACCGAGCAAUAUUACGCGUC | -3.17 ± 0.15 | -2.18 ± 0.22 |
| UCCAAGCAAUAUUACGCACU | -2.28 ± 0.15 | -0.918 ± 0.14 |
| AAAGAGCAAUAUUACGUAGG | -3.36 ± 0.15 | -2.76 ± 0.25 |
| UUGAAGCAAUAUUACGAGGC | -3.28 ± 0.39 | -1.84 ± 0.47 |
| CGUUAGCAAUAUUACGGAGG | -1.43 ± 0.12 | -1.01 ± 0.11 |
| AUUGAGCAAUAUUACGCAGG | -3.68 ± 0.29 | -2.72 ± 0.27 |
| UGUCAGCAAUAUUACGGGCA | -2.75 ± 0.21 | -1.78 ± 0.27 |
| UAUCAGCAAUAUUACGCAAU | -1.96 ± 0.11 | -0.74 ± 0.1 |
| GUCUAGCAAUAUUACGGUUG | -2.54 ± 0.092 | -1.53 ± 0.1 |
| UACGAGCAAUAUUACGGCUA | 0.411 ± 0.22 | 0.683 ± 0.23 |
| AUUCAGCAAUAUUACGGCGA | -0.392 ± 0.078 | -0.501 ± 0.084 |
| AAAGAGCAAUAUUACGUGAG | -2.95 ± 0.12 | -1.02 ± 0.12 |
| CGUUAGCAAUAUUACGCGAA | -3.36 ± 0.41 | -3.1 ± 0.43 |
| UCACAGCAAUAUUACGGUAG | -1.18 ± 0.085 | -0.311 ± 0.1 |
| CGUCAGCAAUAUUACGUCGC | -3.45 ± 0.34 | -1.88 ± 0.36 |
| UCGGAGCAAUAUUACGCUCU | -2.27 ± 0.36 | -1.68 ± 0.23 |
| AGAAAGCAAUAUUACGGUAC | -3.29 ± 0.32 | -1.67 ± 0.23 |
| CGGUAGCAAUAUUACGGAUC | -4.27 ± 0.33 | -1.68 ± 0.23 |
| ACGGAGCAAUAUUACGUCAA | -2.71 ± 0.39 | -2.94 ± 0.36 |
| AGCAAGCAAUAUUACGGGCG | -0.538 ± 0.061 | -0.377 ± 0.074 |
| GUGAAGCAAUAUUACGCGGA | -1.24 ± 0.09 | -1.13 ± 0.14 |
| CAGAAGCAAUAUUACGUGUA | -3.81 ± 0.17 | -1.25 ± 0.094 |
| GUUGAGCAAUAUUACGCUUG | -2.79 ± 0.22 | -2.15 ± 0.27 |
| CACCAGCAAUAUUACGCCAU | -3.39 ± 0.31 | -2.03 ± 0.29 |
| AGCCAGCAAUAUUACGCAUC | -3.75 ± 0.2 | -3.03 ± 0.17 |

| Sequence | self-splicing fitness (ln) (30 °C) | self-splicing fitness (ln) (37 °C) |
| --- | --- | --- |
| AAUAAGCAAUAUUACGUGAU | -2.97 ± 0.14 | -1.23 ± 0.12 |
| CGUUAGCAAUAUUACGGAAU |  | -2.07 ± 0.36 |
| CUCUAGCAAUAUUACGGUGU | -3 ± 0.19 | -2.63 ± 0.3 |
| AAGUAGCAAUAUUACGGGCC |  | -1.88 ± 0.37 |
| ACACAGCAAUAUUACGAGCC | -1.97 ± 0.17 | -0.179 ± 0.19 |
| CCUCAGCAAUAUUACGCUAA | -2.79 ± 0.14 | -3.05 ± 0.2 |
| UAGAAGCAAUAUUACGACGU | -1.27 ± 0.1 | -0.768 ± 0.098 |
| AACGAGCAAUAUUACGACAG |  | -2.37 ± 0.28 |
| CGGUAGCAAUAUUACGUUGG | -1.26 ± 0.091 | -0.39 ± 0.084 |
| GGUGAGCAAUAUUACGUGAU | -2.45 ± 0.13 | -1.71 ± 0.18 |
| AACAAGCAAUAUUACGGAAC | -3.32 ± 0.16 | -1.73 ± 0.15 |
| AUCGAGCAAUAUUACGUACC | -3.76 ± 0.35 | -1.53 ± 0.34 |
| CAUAAGCAAUAUUACGAUCC | -3.25 ± 0.23 | -2.71 ± 0.32 |
| CAUAAGCAAUAUUACGUAUC | -2.78 ± 0.2 | -2.72 ± 0.25 |
| AACCAGCAAUAUUACGAACU | -0.369 ± 0.079 | 0.35 ± 0.1 |
| GUUAAGCAAUAUUACGAUGA | -1.33 ± 0.17 | 0.18 ± 0.11 |
| UGGCAGCAAUAUUACGAAAA | -0.512 ± 0.082 | -0.934 ± 0.1 |
| UUUCAGCAAUAUUACGGGGA | -2.43 ± 0.24 | -0.33 ± 0.16 |
| GCGGAGCAAUAUUACGUGUC | -2.84 ± 0.3 | -1.06 ± 0.43 |
| UUGUAGCAAUAUUACGUUCA | -1.07 ± 0.11 | -0.717 ± 0.13 |
| ACGGAGCAAUAUUACGUUAC |  | -2.56 ± 0.22 |
| CCGAAGCAAUAUUACGAGUA | -2.42 ± 0.2 | -2.92 ± 0.23 |
| AGUGAGCAAUAUUACGACUG | -0.0618 ± 0.23 | 0.551 ± 0.31 |
| UAGCAGCAAUAUUACGUUCA | 0.0863 ± 0.062 | 0.0609 ± 0.1 |
| UAUCAGCAAUAUUACGACUU | -0.502 ± 0.067 | -0.0466 ± 0.074 |
| CUCUAGCAAUAUUACGACAU | -3.866 ± 0.033 | -3.6 ± 0.044 |

| Sequence | self-splicing fitness (ln) (30 °C) | self-splicing fitness (ln) (37 °C) |
| --- | --- | --- |
| CACGAGCAAUAUUACGCAGA |  | -2.28 ± 0.26 |
| ACUUAGCAAUAUUACGAGUA | 0.101 ± 0.18 | -1.33 ± 0.21 |
| GAACAGCAAUAUUACGGCCU | -1.14 ± 0.11 | -0.067 ± 0.14 |
| UACCAGCAAUAUUACGAUAA | -0.622 ± 0.093 | -0.122 ± 0.1 |
| AUGCAGCAAUAUUACGUUUC | -3.96 ± 0.18 | -3.31 ± 0.32 |
| ACUGAGCAAUAUUACGAUGG | -2.16 ± 0.096 | -1.13 ± 0.1 |
| UUGCAGCAAUAUUACGGUCA | 0.208 ± 0.12 | 0.556 ± 0.11 |
| UGCAAGCAAUAUUACGAGUG | -1.42 ± 0.052 | -0.498 ± 0.062 |
| CUUCAGCAAUAUUACGUCUA |  | -2.38 ± 0.32 |
| GGGGAGCAAUAUUACGCUCU |  | -2.19 ± 0.49 |
| UGGCAGCAAUAUUACGGUUU | -0.212 ± 0.061 | -0.422 ± 0.078 |
| AAGAAGCAAUAUUACGCACC | -1.11 ± 0.12 | -0.644 ± 0.15 |
| GCUUAGCAAUAUUACGUCAA | -2.67 ± 0.26 | -1.66 ± 0.2 |
| AAUUAGCAAUAUUACGUGUA | -2.21 ± 0.15 | -1.41 ± 0.12 |
| GCUAAGCAAUAUUACGCCCU | -0.606 ± 0.19 | -0.768 ± 0.15 |
| CGAUAGCAAUAUUACGUCAC | -3.44 ± 0.26 | -2.34 ± 0.25 |
| CUUAAGCAAUAUUACGUACA |  | -2.73 ± 0.39 |
| ACGGAGCAAUAUUACGCUUG | -1.71 ± 0.11 | -0.212 ± 0.1 |
| ACAUAGCAAUAUUACGGUUC | -2.93 ± 0.17 | -2.51 ± 0.24 |
| CUUCAGCAAUAUUACGACUG | -0.803 ± 0.077 | -0.505 ± 0.092 |
| CGUUAGCAAUAUUACGAAUG | -1.92 ± 0.15 | 0.491 ± 0.12 |
| CUUCAGCAAUAUUACGCUGA | -2.41 ± 0.17 | -2.56 ± 0.29 |
| UACUAGCAAUAUUACGCACU | -0.822 ± 0.068 | 0.229 ± 0.079 |
| CAAGAGCAAUAUUACGGUUU | -3.5 ± 0.18 | -2.33 ± 0.2 |
| AUUUAGCAAUAUUACGGCCC | -1.06 ± 0.2 | -0.289 ± 0.3 |
